Experimental data from the DeepSol protein solubility set.

test: soluble on expression in E. coli; label from the status in PepcDB or PDB records

Row | Sequence | soluble on expression in E. coli
1 | MLYKIYSYLGWRIDMKTENLPQAGQEAQIDKKIHFIWVGHIMPQKNIQVVSEWAEKNPGYETIIWVDKKIAPAKELDLFILDMKSKGITVKDINEEGVCRDSIRHELDQESPNYGMVSDMLRLNILAAEGGIYLDSDILCSAPFPDEIYAPFGFLLSPWSQGANNTLCNDIILCSKGNQIIQQLADAIEQSYIARDSFEFTHEYASMKETKGERIAKTLGVTGPGFLFHQLKKMGILNDKSEMEAIHWELQDQRYLIDGSVKEPDYFYVPQNNTNDASWVPSIKRPGIENMSFQERLENAVQLIAFDIQKTGLFNLDHYANELKVKQNSWCIAAETSPELKPDSYLLIRPRDKTGEWTLYYVDEDKKLNPVTLPVIKGAIKLSEVSDPLRKFHTLLSQVSDPVNPTAHELKQIGRALIELKPRQDEWHCKNKWSGAEEIAQELWQRITSNETLRAQIKQCFTQFESLKPRVAELGLTRASGAGTEVEAHESTVKEQEIISQNTVGEEGTKEKNSVQLASENSSDEKIKTAHDLIDEIIQDVIQLDGKLGLLGGNTRQLEDGRVINIPNGAAMIFDDYKKYKQGELTAESALESMIKIAKLSNQLNRHTFFNQRQPETGQFYKKVAAIDLQTTIAAEYDNNHGLRILEHHHHHH | not soluble
2 | MSDDHHDDEHFHTGDSGAAATFPKQCSALRKNEHVMIKGRPCKIVEMSTSKTGKHGHAKVHMVAIDIFTSKKLEDICPSTHNMDVPVVKRREYLLMAIDDGYCSLMDPESCEQKDDLKLPDTELGQQIRDAYEKDEGSVLVQVVSAIGEEAILGWKVSTKE | not soluble
3 | SNVRATYTVIFKNASGLPNGYDNWGWGCTLSYYGGAMIINPQEGKYGAVSLKRNSGSFRGGSLRFDMKNEGKVKILVENSEADEKFEVETISPSDEYVTYILDVDFDLPFDRIAFQDAPGNGDRIWIKNLVHSTGSADDFVDPINLEHHHHHH | soluble
4 | MAMNLLEDWCRGMEVDIHRSLLVTGIPEDCGQAEIEETLNGVLSPLGPYRVLNKIFVREENVKAALIEVGEGVNLSTIPREFPGRGGVWRVVCRDPTQDAEFLKNLNEFLDAEGRTWEDVVRLLQLNHPTLSQNQHQPPENWAEALGVLLGAVVQIIFCMDAEIRSREEARAQEAAEFEEMAAWALAAGRKVKKEPGLAAEVGSALKAETPNNWNATEDQHEPTKPLVRRAGAKSRSRRKKQKKNSRQEAVPWKKPKGINSNSTANLEDPEVGDAESMAISEPIKGSRKPCVNKEELALKKPMAKCAWKGPREPPQDARAEAESPGGASESDQDGGHESPPKKKAVAWVSAKNPAPMRKKKKVSLGPVSYVLVDSEDGRKKPVMPKKGPGSRREASDQKAPRGQQPAEATASTSRGPKAKPEGSPRRATNESRKV | soluble
5 | MDDFATSSRVFEDDNDAFDFNPLEDFAFDDIDDDDDIVSGILDDGPYSIPNADNKPKFKSVSFDNAETPEERIETLFNQMPTQDDLLLGILDASQTPIFTDDLEQKVEELKQHHHSVYSPMSYCRLLERAGAIEQTNNEGLPLKEVEVEPDKVVVEGVEYWKVAAAPDVYWTATPAGLAHFQAYQPMELLRQMVQNEPQYEEIFRMVLSATAADGGESVKNIDDLVSDDPILQSPRRYAMYFIDKLERAGGIQWRGAWVAIQAGKDFLAELNA | not soluble
6 | DADPTFDFIGYLETLPQTSGMYMGNASIIPRNYRKYLYHAYLAYMEANGYRNVLSLKMFGLGLPVMLKEYGLNYEKRHTKQGIQTNLTLKEESYGDWLPK | soluble
7 | MRIEAAELRILELPLKFRFETSFGVQTKRTILLLRLFGEGLEGLGEGVMERLPLYREETVAGARYLLEEVFLPRVLGRDLPNPEALREALAPFRGNPMAKAVLEMAFFDLWAKALGRPLWQVLGGVRQAVEVGVSLGIQPSVEDTLRVVERHLEEGYRRIKLKIKPGWDYEVLKAVREAFPEATLTADANSAYSLANLAQLKRLDELRLDYIEQPLAYDDLLDHAKLQRELSTPICLDESLTGAEKARKAIELGAGRVFNVKPARLGGHGESLRVHALAESAGIPLWMGGMLEAGVGRAHNLHLATLPGFTKPGDVSSASRYWEEDIVEEALEAKDGLMPVPEGVGIGVHLKLPFVERVTLWQRYMSAS | soluble
8 | MINRTLKQVEQMINGTGLAEQYEGITIQGVSIDTRKIEKGNLYVPIQGERFDGHAFVDKAVENGAVATLWVKDVANPPENLPVIFVEDTLSALQMLAKNYRDQLDVKVIGVTGSNGKTSTKDIVTSLLATKFKVQKTEGNFNNHIGLPLTILNLEENTEVAVLEMGMSSRGEIEFLSKLARPNAAIITNIGEAHLMDLGSREAIAEAKLEIVTGLQEGGVFVYNGDEPLLTNRVPEMNLIAETVTFGDARANDYYPTTVTLQATGTHFKMNREENISFYLPVLGKHNVYNTLASMAIAKYFGVTWEEMKEGLVTLQMTGMRMEIVKTDSGLTIINDAYNASPTAMEAAFHLMNGLDGFSKKIVVLGDMLELGDQEVQFHYEVGKLIDPAKISYVFTYGKLGAQIAEGAKINFPNERVKAYDNKEELVKELQAVVDTKDVVLVKASRGMKLEEVITMLK | not soluble
9 | MGSDKIHHHHHHMEPIVRLENVTKNYRGVPAVKNVSFDLRKGEIHALLGENGAGKSTLTKIIAGVVDATSGKMFHKGREIAYASPHAALEAGIAMVFQETSLVPSMTVAQNLYLGTEKFLNRLRGTYIAAQQFLQSLNFPVDPNAMVATLGAAKRQMVEIARAVHHNAEIIIFDEPTATLTPEEKRHFFALIRRLKASGVSIVFISHALEEALAIADRITILRDGELVITDDTSAFDRDKIVAAMVGRTLSGQIYRQRDEARLRKAGKKVLSVQDISMSNVVRNNSFSIFEGQITGVFGLIGSGRTETFKIVSGIYKRDFLRGGAIELDDRPVRYLVPSEAVADGIVYVTEDRKSEGIFETMGIAENLFGGLLAAGREKAWVINQQEMRQLSAQWTKTLNIKAINDNARVVELSGGNQQKVVIGKGLVQQPRIVIFDEPTRGVDVGAIAEIHQIINRLADEGLAVVVISSYLPEIMNLSDRILVCRQGRIVEEYSPAEATEEKIMYAAVH | not soluble
10 | MSLSTMGPLGGISVIFDLDGTLVDSEPHYYEAGRRTLAEYGVPDFSWADHEAYVGISTQETVADWKRRYGLRATVEELLAVKNRHYLGLARTSARAYPEMRKFVELLAGEGVPMAVASGSSPEAIAAILARTGLDAHLRTVVSADEVARGKPAPDVFLEAARRLGTEPARCVVLEDAAPGAAAAHAAGMRCIAIPYVSGQADAPEFATAELLVRGGQEEFTARAAHDWLRTDGNATRETEGHHHHHH | soluble
11 | MAHHHHHHMSTSNEEDKWSAISAKKIAPKYRKGYYPNRDIMTPKKKTEKKELTYKNSKIAIGRTKSLRFRRDTVTFATKNINFQHRKKSILSKQKSMAEPKLKKQNTVALKRRKTMSRLNSMKKPPYTIVLNKKKVINMNKGMHPSENRKDKISGTTNTPLAARRMLARSKTKVLVDNETKIFKKENVKMVSSNPFNPIASSVESSRRNELENGKQKKELGTVGSANKRESAQHLSTNADKKKIYHNSVRNKLKSKKEEMFQNIISLTKNMKEKPLKKKYNDQIDPRDLLSVTSNNSSVAVDDDL | not soluble
12 | MEGSQQTITSKQLVRMLKDASRGSKGKGSGEMKFCFLIGAGASISSGIPSGAKLAWDWLQQIKEDCDGEDFEDWKIEIKMPDQHIEERVGEFYPEIYEKRFGHAPETGYDYIRGLMEGREPSLGYLILANIMVREKHNVVITTNFDNLLEDAIRTYTKEKPFIAGHEALADYVPKRSDRPIILKLHRDLFLQPFSDQLNTDILQAAWESILGKFLSDYHLIVLGYGGNDGSLMNYLLKLKNRKPIYWCVRNTDKATSKSLWNTLSPKAKRLLKNDGYLVPIDDFDRFMYDCYAALGYKFLEGIEKIEKPKSIHEILKPNYARIESIQTQLRQLSQTEEELSKESFQSIKSFLPDSWMWILKANQEKDIDKKDKIYREGIAKYPQDANLLGDYADFLCDICHD | not soluble
13 | MKAERILGALYGQALGDAMGMPSELWPRTRVKAHFGWIDRFLPGPKENNAACYFNRAEFTDDTAMALCLADALLECEGNIDPEIIGRNILAWAERFDAFNKNVLGPTSKIALNAIRDGKPIAALENNGVTNGAAMRVSPLGCLLPPTNLTAFIAEVALASSPTHKSDLAVAGAVVVAWAVSRAVNGDTWQSIADSLPAVAHQAQTARITTFSASLSARLELALNIVRHADGVESASEQLYQIIGAGTSTIESVPCAIAMVELANTDPNRCAVLCANLGGDTDTIGAMATAICGALHGVSAINPQLKQTLDEVNQLDFARYAVALASYRQRREALLEHHHHHH | soluble
14 | MSLGLVVLKFGGTSVSTVDKIGKTADQAIYEKKQGNKVIVVVSAMGKSTDKLVAMAEEISEAPDKREMDMLLSTGEQITIALLAMTLKEKGHDAISYTGWQAGIETEAVHSNARIADIDSARIESALDAGQIVVVAGFQGFTTDGEITTLGRGGSDTTAVAIASALNAEKCAICTDVVGVFTTDPRYVKKAQKLEQITYDEMLELANLGAGVLHPRSVEYAKNFRIPLEVRASHEQVPGTMIEEDLTMENTKVVRGIAFEDQITRVTIHWKQKEAMRVSKVFTKLAENNIDVDIIIQGITGLGHGNLSFTIKTSALLATLAVLEESKELLQIEKLESEQELAKVSIVGSGMVSNPGVAAQMFEALTENNIPIKMISTSEIKVSTVVPARKMVEAAQVLHDQFELDKEGHHHHHH | not soluble
15 | MSLTEDLNKRVEQAAQGITPQTKPDERRRYLGSLRERVLVRLNNTEVKDPKLTALFLKHITDFKGYTILINGNITDDGFLGEVEAACSKEDIPFTLVNNETAKTGPEDTAILVVAKTAINHPRVEINQVYPPEMPKTELSAPSKKHESFWHHLFHKDEGHHHHHH | soluble
16 | MTKVTREEVEHIANLARLQISPEETEEMANTLESILDFAKQNDSADTEGVEPTYHVLDLQNVLREDKAIKGIPQELALKNAKETEDGQFKVPTIMNEEDA | soluble
17 | MFKRVFNLRFISNFSRRPTSSPKLPKLIAITGGTSLGIAFFGKTEENKNLDSGNGQLIDGKPKNFDLIVRNSDELYDNYLIDNCYNILKKFENSNCSELLWRLARVVCEKGKLSKDQNQRKELILEAYGIVKKALDNEPKNGCFGAHKWYAILLDYVGEIEGNKSRIEKSFQVRKHLEKALSIFENDPTTWHILGVWHFSFANMGYATRMVAKAIFATPPASTYQEALHYFLKAEQISPGFYSTNTYYIGEVYEQLGQKAEALDAFKQSFKMPVVTSDDAVIHKKAYEKLKKYGVKDTEVV | not soluble
18 | MSLSDGDYDYLIKFLALGDSGVGKTSVLYQYTDGKFNSKFITTVGIDFREKRVVYRASGPDGATGRGQRIHLQLWDTAGQERFRSLTTAFFRDAMGFLLLFDLTNEQSFLNVRNWISQLQMHAYCENPDIVLCGNKSDLEDQRVVKEEEAIALAEKYGIPYFETSAANGTNISQAIEMLLDLIMKRMERCVDKSWIPEGVVRSNGHASTDQLSEEKEKGACGCEGHHHHHH | soluble
19 | MATIPSVVREITLVGEQIFDHTQVVRAEIDRFVERFERNERHREFDGILRASHALVESSETPVEGLFDMGKMEHMTQCVDDITKKLQTLVEPKYQKEHDVYLEKVKEDQKKYVDVCREQAMNKMRSMTAHR | not soluble
20 | GAMAPATCEKPKFLEYKTCVGDLTVVIAKALDEFKEFCIVNAANEHMTHGSGVAKAIADFCGLDFVEYCEDYVKKHGPQQRLVTPSFVKGIQCVNNVVGPRHGDNNLHEKLVAAYKNVLVDGVVNYVVPVLSLGIFGVDFKMSIDAMREAFEGCTIRVLLFSLSQEHIDYFDVTCK | soluble
21 | MTKTQLVCDKNQLNWGLKAAKAIAGKSPYDVVQMRVSPDRDYLYICAVNAEATLVAKVELLVANISSEEDEIITIDKAKIPALILATAETGKKSEDSRPMAGICIRGKEVDFTDENGAGRGVDLTTIHRNDSAEIGDPVRTIIRVKQ | not soluble
